Data taken from patent US20250026843A1 (ANHUI BIOX VISION BIOLOGICAL TECHNOLOGY, published 2025).

T1: human CLDN18.1 expressed on the cell surface of HEK293 cells (human, UniProt P56856 1-261)
T1 construct: whole, on cells
T1 sequence (looked up): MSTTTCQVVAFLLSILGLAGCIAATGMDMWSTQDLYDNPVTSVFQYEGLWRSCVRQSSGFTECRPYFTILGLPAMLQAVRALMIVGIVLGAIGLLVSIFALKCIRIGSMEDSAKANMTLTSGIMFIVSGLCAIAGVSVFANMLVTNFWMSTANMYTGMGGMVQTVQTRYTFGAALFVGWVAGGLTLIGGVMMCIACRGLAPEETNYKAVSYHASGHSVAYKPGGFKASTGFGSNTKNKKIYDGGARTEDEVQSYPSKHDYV

T2: human CLDN18.2 expressed on the cell surface of HEK293 cells (human, UniProt P56856-2 1-261)
T2 construct: whole, on cells
T2 sequence (looked up): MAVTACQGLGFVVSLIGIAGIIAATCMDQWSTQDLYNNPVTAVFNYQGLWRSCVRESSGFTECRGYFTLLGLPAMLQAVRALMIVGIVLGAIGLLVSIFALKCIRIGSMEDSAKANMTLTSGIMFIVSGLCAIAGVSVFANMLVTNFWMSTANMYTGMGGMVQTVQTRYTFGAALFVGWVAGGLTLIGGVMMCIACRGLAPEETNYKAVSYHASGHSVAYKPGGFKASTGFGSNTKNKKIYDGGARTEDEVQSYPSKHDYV

B1: C8-WT-NA3S-HC (bispecific antibody, human IgG1, kappa, N297Q)
heavy: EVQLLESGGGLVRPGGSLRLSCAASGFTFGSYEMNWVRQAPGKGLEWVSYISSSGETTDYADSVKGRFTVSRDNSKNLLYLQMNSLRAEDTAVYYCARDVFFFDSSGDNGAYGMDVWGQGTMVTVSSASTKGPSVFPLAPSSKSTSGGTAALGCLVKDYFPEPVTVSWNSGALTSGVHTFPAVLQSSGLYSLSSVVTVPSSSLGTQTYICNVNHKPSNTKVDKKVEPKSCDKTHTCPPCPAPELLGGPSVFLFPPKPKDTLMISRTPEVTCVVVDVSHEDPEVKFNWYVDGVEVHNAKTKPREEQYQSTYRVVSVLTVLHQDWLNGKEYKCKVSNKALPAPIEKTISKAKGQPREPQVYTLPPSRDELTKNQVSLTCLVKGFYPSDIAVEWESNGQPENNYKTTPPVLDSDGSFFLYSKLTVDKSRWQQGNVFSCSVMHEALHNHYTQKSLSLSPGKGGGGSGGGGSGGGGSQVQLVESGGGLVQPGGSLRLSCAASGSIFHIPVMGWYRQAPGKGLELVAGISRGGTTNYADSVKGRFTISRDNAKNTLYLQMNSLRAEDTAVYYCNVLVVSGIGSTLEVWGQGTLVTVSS
light: DIQLTQSPSSLTASVGDRVTITCRSSQGIRSSLAWYQQKPGKPPKLLIYGASSLEGGVPSRFSGSGSGTDFTLTISSLQPEDFATYYCQQLNSFPSTFGQGTKLEIKRTVAAPSVFIFPPSDEQLKSGTASVVCLLNNFYPREAKVQWKVDNALQSGNSQESVTEQDSKDSTYSLSSTLTLSKADYEKHKVYACEVTHQGLSSPVTKSFNRGEC
notes: Fc is hIgG1 N297Q; also called anti-CD40×CLDN18.2 bispecific antibody; bispecific antibody of the present invention
B2: C8-10-NA3S-HC (bispecific antibody, human IgG1, kappa, N297Q)
heavy: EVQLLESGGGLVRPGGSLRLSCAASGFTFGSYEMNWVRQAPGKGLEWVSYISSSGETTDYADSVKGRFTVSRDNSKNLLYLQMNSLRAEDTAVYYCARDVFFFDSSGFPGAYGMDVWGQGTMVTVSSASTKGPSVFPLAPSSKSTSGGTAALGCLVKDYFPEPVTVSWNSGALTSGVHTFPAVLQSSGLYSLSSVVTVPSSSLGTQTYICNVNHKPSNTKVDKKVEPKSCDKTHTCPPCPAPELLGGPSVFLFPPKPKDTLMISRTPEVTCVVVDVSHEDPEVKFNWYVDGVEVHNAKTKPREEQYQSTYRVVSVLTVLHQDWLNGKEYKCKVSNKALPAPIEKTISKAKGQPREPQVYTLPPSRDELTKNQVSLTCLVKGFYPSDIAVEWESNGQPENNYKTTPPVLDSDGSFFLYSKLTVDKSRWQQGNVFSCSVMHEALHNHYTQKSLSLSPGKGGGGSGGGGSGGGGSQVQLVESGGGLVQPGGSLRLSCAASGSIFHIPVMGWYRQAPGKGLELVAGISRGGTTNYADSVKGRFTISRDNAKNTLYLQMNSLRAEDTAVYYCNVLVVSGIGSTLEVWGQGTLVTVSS
light: B1 light
notes: as for B1
B3: C8-2-NA3S-HC (bispecific antibody, human IgG1, kappa, N297Q)
heavy: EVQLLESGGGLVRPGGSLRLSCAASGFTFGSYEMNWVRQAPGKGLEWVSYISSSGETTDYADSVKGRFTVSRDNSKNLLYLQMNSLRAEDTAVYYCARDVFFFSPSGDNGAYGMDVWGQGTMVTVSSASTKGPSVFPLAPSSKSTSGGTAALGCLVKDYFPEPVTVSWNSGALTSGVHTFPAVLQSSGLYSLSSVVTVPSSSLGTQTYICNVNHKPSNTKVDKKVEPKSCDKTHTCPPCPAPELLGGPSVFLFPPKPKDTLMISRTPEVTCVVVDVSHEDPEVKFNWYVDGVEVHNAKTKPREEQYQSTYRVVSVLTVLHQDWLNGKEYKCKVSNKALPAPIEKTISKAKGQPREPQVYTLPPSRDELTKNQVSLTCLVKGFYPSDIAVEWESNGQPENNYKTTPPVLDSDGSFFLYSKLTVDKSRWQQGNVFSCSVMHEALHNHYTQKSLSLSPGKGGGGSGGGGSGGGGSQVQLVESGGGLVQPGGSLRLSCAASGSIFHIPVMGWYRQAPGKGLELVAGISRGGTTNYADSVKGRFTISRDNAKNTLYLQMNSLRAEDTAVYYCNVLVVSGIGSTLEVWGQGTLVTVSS
light: B1 light
notes: as for B1
B4: C8-6-NA3S-HC (bispecific antibody, human IgG1, kappa, N297Q)
heavy: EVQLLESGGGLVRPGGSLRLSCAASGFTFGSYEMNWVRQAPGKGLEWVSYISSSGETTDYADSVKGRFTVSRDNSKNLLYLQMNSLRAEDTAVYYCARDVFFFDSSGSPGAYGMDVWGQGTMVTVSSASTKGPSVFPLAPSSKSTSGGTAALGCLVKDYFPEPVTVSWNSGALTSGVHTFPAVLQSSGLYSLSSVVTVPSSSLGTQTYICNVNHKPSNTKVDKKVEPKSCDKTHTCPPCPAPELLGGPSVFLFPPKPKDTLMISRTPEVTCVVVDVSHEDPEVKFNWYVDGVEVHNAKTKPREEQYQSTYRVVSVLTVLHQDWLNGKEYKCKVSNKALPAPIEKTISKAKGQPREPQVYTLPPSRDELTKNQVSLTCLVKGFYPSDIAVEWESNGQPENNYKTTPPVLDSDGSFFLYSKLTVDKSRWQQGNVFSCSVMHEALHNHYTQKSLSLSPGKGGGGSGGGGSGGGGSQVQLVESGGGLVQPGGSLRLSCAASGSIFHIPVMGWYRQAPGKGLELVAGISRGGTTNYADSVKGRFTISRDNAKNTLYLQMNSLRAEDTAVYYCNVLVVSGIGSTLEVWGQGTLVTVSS
light: B1 light
notes: as for B1
B5: APX005 (antibody, V domains shown)
VH: QVQLVESGGGVVQPGRSLRLSCAASGFSFSSTYVCWVRQAPGKGLEWIACIYTGDGTNYSASWAKGRFTISKDSSKNTVYLQMNSLRAEDTAVYFCARPDITYGFAINFWGPGTLVTVSS
VL: DIQMTQSPSSLSASVGDRVTIKCQASQSISSRLAWYQQKPGKPPKLLIYRASTLASGVPSRFSGSGSGTDFTLTISSLQPEDVATYYCQCTGYGISWPIGGGTKVEIK

Molecular target: T1, human CLDN18.1 expressed on the cell …
Assay: flow cytometry on 18.1-HEK293 cells
Procedure: (§1) After culturing at 4° C. for 30 min, the cells were washed and added with 100 μL of 1:300 diluted PE-labeled Goat F(ab′)₂ Anti-human Fc (PE) and cultured at 4° C. for 30 min. The cells were then washed and the binding of the bispecific antibody to CLDN18.1 molecules expressed on the surface of HEK293 cells was detected through flow cytometry.

Row | Binder | binding result
1 | B1 | no binding (tested: 115.6 nM highest concentration tested)
2 | B2 | no binding (tested: 115.6 nM highest concentration tested)
3 | B3 | no binding (tested: 115.6 nM highest concentration tested)
4 | B4 | no binding (tested: 115.6 nM highest concentration tested)

Molecular target: T2, human CLDN18.2 expressed on the cell …
Assay: flow cytometry on 18.2-HEK293 cells
Procedure: as §1, with “diluted” for “diluted PE-labeled”, “cultured” for “cultured at 4° C.”, “CLDN18.2” for “CLDN18.1 molecules”

Row | binding result | Binder
5 | binds | B1
6 | binds | B2
7 | binds | B3
8 | binds | B4

Molecular target: T3, P17-His fusion protein (extracellular domain of human CD40 with a His tag) (human, UniProt P25942 21-193)
T3 construct: range 21-193; not shown: His tag
Assay: ELISA, P17-His coated on plate, anti-human Fc-HRP detection
Procedure: The obtained 4 bispecific antibodies were detected for affinity against the extracellular domain of human CD40 (Uniprot: positions 21 to 193 of P25942) through ELISA. The extracellular domain of human CD40 carried a His tag, also referred to herein as a P17-His fusion protein.
2 μg/mL of the P17-His fusion protein was coated onto a 96-well ELISA plate at 30 μL per well at 4° C. overnight. The next day, after encapsulating in 5% PBSM (PBS+5% Milk) at room temperature for 2 h, serially diluted (20 nM in the first well, 10-fold dilution in the second well, 3-fold dilution in the third to seventh wells, and 4-fold dilution in the seventh to eighth wells) anti-CD40×CLDN18.2 bispecific antibody, positive control APX005 (sequence derived from Apexigen Inc. US20120301488A1, prepared in the laboratory), or isotype IgG1 negative control were added. After culturing at room temperature for 1 h, washed 3 times with PBST (PBS+0.05% Tween-20), and then 30 μL of Goat-anti-human-Fc-HRP (abcam, ab97225) was added. After culturing at room temperature for 1 h, washed 3 times with PBST (PBS+0.05% Tween-20), and TMB colorimetric solution was added for color development for 5 to 30 min. After termination, OD450 was detected through a microplate reader (Beckman Coulter), and the results were analyzed and plotted through Graphpad 7.0 to evaluate the binding of the bispecific antibody to the P17-His fusion protein.

T3 sequence (P25942 21-193 limits assumed): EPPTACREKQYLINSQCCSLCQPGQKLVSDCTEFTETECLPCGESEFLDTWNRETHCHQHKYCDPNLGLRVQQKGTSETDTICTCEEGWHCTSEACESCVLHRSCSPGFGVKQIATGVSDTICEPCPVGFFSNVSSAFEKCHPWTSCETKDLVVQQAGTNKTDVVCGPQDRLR

Row | EC50 [pM] | Binder
9 | 110 | B1
10 | 104 | B2
11 | 127 | B3
12 | 102 | B4
13 | 61.2 | B5
